In US20250282885A1 (VST BIO, published 2025):

Key:
[1] = target: T1, human Sdc2 (human, UniProt P34741 19-144, limits assumed); assay: Octet tandem binning; saturating Ab m3 19844-R3-P1-C02 (row boxed, self-self >0.09)
T1 construct: Antigen of the Octet tandem binning, loaded on biosensors at 100 nM; also called huSdc2; hSdc2

[2] = target: T1, human Sdc2; assay: Octet tandem binning; saturating Ab m2 19838-8G17-A
[3] = target: T1, human Sdc2; assay: Octet tandem binning; saturating Ab m5 19844-R4M-P3-A12 (row boxed, self-self >0.09)
Outline: (§1)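 Human Sdc2 (100 nM) served as antigen on Octet biosensors, which were dipped in saturating antibody at 25 μg/ml for 240 s, then competing antibody at 5 μg/ml for 180 s. Competing-antibody signal was divided by its binding after a buffer-only saturation step.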

[4] = target: T2, pig Sdc2 (pig, UniProt F1S0L5 19-145); assay: Octet BLI, heading box over the sensorgram; the box prints nm, the table gives 2.71E-09 M
T2 construct: also called pSdc2

[5] = target: T1, human Sdc2; assay: Octet tandem binning; saturating Ab f9 19838-6-E17-A
[6] = target: T1, human Sdc2; assay: Octet BLI, HIS1K sensor loaded with huSdc2, antibody as sample; Full R2 0.9628
Protocol: (§2) In order to characterize the binding affinity and in vivo/in vitro functional ability of the twelve clones generated by the previous studies and disclosed in Table 1, a series of assays were performed on each clone. These assays measured the affinity of each antibody clone for human, pig, and mouse Sdc2 using an Octet® binding assay system. Additionally, the functional ability of each clone to inhibit VEGFA-driven permeability (see Santiago, et al. (2021) J Am Heart Assoc. 10(18):e020521) was assessed in two therapeutic settings: a “prevention” study in which three concentrations of antibody (5 μg/ml, 10 μg/ml, 15 μg/ml, 20 μg/ml, and/or 40 μg/ml depending on the study) were pre-incubated for an hour before administration of 100 ng/ml of VEGFA, and a “treatment” study in which 3 hours of pre-treatment with 100 ng/ml VEGFA were followed by treatment with antibody at 20 μg/ml or 40 μg/ml. Results are shown for 8-G17 in FIG. 8 and FIG. 9, 20-H19-AB in FIG. 10 and FIG. 11 (FIG. 12 for monkey ECs), R3-P3-C11 in FIG. 13 and FIG. 14, R4M-P3-E06 in FIG. 15 and FIG. 16, R3-P3-E09 in FIG. 17 and FIG. 18, R3-P1-C02 in FIG. 19 and FIG. 20, R3-P3-A12 in FIG. 21 and FIG. 22, R4M-P3-A12 in FIG. 23 and FIG. 24, and R4M-P1-A10 in FIG. 25 and FIG. 26.

[7] = target: T1, human Sdc2; assay: Octet tandem binning; saturating Ab f12 19838-6-N03-A
[8] = target: T1, human Sdc2; assay: Octet tandem binning; saturating Ab f5 19844-R4M-P3-E06
[9] = target: T1, human Sdc2; assay: Octet tandem binning; saturating Ab f7 19844-R3-P3-A12
[10] = target: T1, human Sdc2; assay: Octet tandem binning; saturating Ab m8 19844-R4M-P1-B01 (marked non-binding ligand)
[11] = target: T1, human Sdc2; assay: Octet tandem binning; saturating Ab f4 19844-R3-P3-C11
Outline: as §1

[12] = target: T1, human Sdc2; assay: Octet tandem binning; saturating Ab f11 19838-20-H19-A
[13] = target: T1, human Sdc2; assay: Octet tandem binning; saturating Ab m7 19844-R3-P1-E07
[14] = target: T1, human Sdc2; assay: Octet tandem binning; saturating Ab f10 19838-10-I12-A
[15] = target: T1, human Sdc2; assay: Octet tandem binning; saturating Ab m6 19838-20H19-AA (marked non-binding ligand)
[16] = target: T1, human Sdc2; assay: Kd (human Sdc2), summary table of the mAbs
[17] = target: T1, human Sdc2; assay: Octet tandem binning; Buffer in place of a saturating Ab
[18] = target: human Sdc2 on Human Umbilical Vein Endothelial Cells (HUVEC) (human, UniProt P34741 19-201); assay: cell-based or functional assay
human Sdc2 on Human Umbilical Vein Endothelial Cells (HUVEC), sequence (P34741 19-201 limits assumed): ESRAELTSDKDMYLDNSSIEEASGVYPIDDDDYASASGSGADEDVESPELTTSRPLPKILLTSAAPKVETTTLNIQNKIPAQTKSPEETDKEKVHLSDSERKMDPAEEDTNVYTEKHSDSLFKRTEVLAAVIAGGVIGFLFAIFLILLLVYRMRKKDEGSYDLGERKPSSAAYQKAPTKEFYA

[19] = target: T1, human Sdc2; assay: Octet tandem binning; saturating Ab f3 19838-6N03-A
[20] = target: T3, mouse Sdc2 (mouse, UniProt P43407 19-145, limits assumed); assay: Octet BLI, heading box over the sensorgram
T3 construct: Immobilised on Maxisorp plates for panning and ELISA; also called mSdc2; moSdc2
T3 sequence (P43407 19-145 limits assumed): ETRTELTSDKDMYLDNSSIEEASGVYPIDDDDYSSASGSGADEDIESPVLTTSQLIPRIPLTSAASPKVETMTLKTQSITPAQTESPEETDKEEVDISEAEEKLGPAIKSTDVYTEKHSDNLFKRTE

[21] = target: T1, human Sdc2; assay: Octet BLI, heading box over the sensorgram
[22] = target: T1, human Sdc2; assay: Octet tandem binning; saturating Ab f8 19844-R4M-P2-C02
[23] = target: T1, human Sdc2; assay: Octet tandem binning; saturating Ab m1 19838-20H19-AB
[24] = target: T1, human Sdc2; assay: Octet tandem binning; saturating Ab f6 19844-R3-P3-E09
Outline: as §1

[25] = target: T2, pig Sdc2; assay: Octet BLI, HIS1K sensor loaded with pigSdc2, antibody as sample; Full R2 0.9632
Protocol: as §2

T1 sequence (P34741 19-144 limits assumed): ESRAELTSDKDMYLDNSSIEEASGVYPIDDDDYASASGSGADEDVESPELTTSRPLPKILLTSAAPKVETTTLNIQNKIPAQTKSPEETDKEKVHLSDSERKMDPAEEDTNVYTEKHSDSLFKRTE

raw competing-Ab binding signal [1]: 0.255
raw competing-Ab binding signal [2]: 0.377
raw competing-Ab binding signal [3]: 0.302
Kd [4]: ~2.71 nM
raw competing-Ab binding signal [5]: 0.34
Kd [6]: 1.82 nM
koff [6]: 0.00663 s⁻¹
kon [6]: 3.65e+06 M⁻¹ s⁻¹
raw competing-Ab binding signal [7]: 0.406
raw competing-Ab binding signal [8]: 0.358
raw competing-Ab binding signal [9]: 0.246
raw competing-Ab binding signal [10]: 0.355
raw competing-Ab binding signal [11]: 0.193
raw competing-Ab binding signal [12]: 0.444
raw competing-Ab binding signal [13]: 0.353
raw competing-Ab binding signal [14]: 0.418
raw competing-Ab binding signal [15]: 0.32
Kd [16]: 1.82 nM
raw competing-Ab binding signal [17]: 0.337
% Inhibition of VEGFA-induced permeability at 24hrs (20ug/ml) [18]: 100%
raw competing-Ab binding signal [19]: 0.362
Kd [20]: ~1.85 nM
Kd [21]: ~1.82 nM
raw competing-Ab binding signal [22]: 0.211
raw competing-Ab binding signal [23]: 0.439
raw competing-Ab binding signal [24]: 0.203
Kd [25]: 2.71 nM
koff [25]: 0.00459 s⁻¹
kon [25]: 1.69e+06 M⁻¹ s⁻¹
B1: R4M-P1-A10 (antibody, human IgG1, kappa, V domains shown)
VH: EVQLVETGGGVVQPGRSLRLSCAASGFTFSSYAMHWVRQAPGKGLEWVAVISYDGSNKYYADSVKGRFTISRDNSKNTLYLQMNSLRAEDTAVYYCARDRGWADAFDIWGQGTMVTVSS
VL: QAGLTQPPSVSKGLRQTATLTCTGNSNNVGYQGAVWLLQYQGHPPKVLSNRNNDRPSGISERLSASRSGNTASLTITGLQPEDEGDYFCAAWDGSLRGWVFGGGTKLTVLR
